Results published in patent US20240141069A1 (SHANGHAI JEMINCARE PHARMACEUTICAL, published 2024).

Experiments:
[1] = target: T1, recombinant human MASP-2 protein hMASP2-D456 (human, UniProt O00187 287-686); assay: Octet RED96e BLI, antibody captured on AHC sensor, antigen 30 nM, 1:1 fit
Method: (§1) Affinities of candidate antibodies JYB1931A63 and JYB1931A13 to human hMASP2-D456 (KACTUS, batch number: 080203), cynomolgus monkey cMASP2-D456 (KACTUS, batch number: 030301), and mouse mMASP2-D456 (KACTUS, batch number: 030401) were measured by Octet RED96e (Fortebio). The antigen and antibody were diluted with 1×PBST (1×PBS: Sangon, B548117-0500; 0.02% Tween 20: sigma-aldrich, P1379) at a concentration of 30 nM for the antigen and a concentration of 5 μg/mL for the antibody.
(§2) First, the sample was added to a 96-well plate (Greiner bio-one, 655209) with a system of 200 μL/well. Then, software parameters were set, the temperature of the plate was set to 30° C., and the frequency for collecting standard dynamic signals was 5.0 Hz. Next, an AHC sensor (Fortebio, article number: 18-0015) was pre-wet with 1×PBST for 10 minutes, and then data were acquired. Each cycle included the following steps: 1) immersing the sensor in a buffer solution for 60 seconds; 2) detecting whether the antigen had non-specific binding with the sensor; 3) regenerating the sensor with 10 mM pH 1.7 glycine solution; 4) immersing the sensor in the buffer solution for 60 seconds; 5) immobilizing the antibody on the sensor for 60 seconds; 6) immersing the sensor in the buffer solution for 180 seconds; 7) binding the antigen and the antibody for 180 seconds; 8) dissociating the antigen and the antibody for 5 minutes; and 9) regenerating the sensor.
(§3) A binding rate (Ka) and a dissociation rate (Kd) in a 1:1 antigen-antibody binding manner were measured by Fortebio's Data Analysis 12.0 software to calculate an equilibrium dissociation constant (KD) of the antibody.

[2] = target: T2, cynomolgus monkey MASP-2 cMASP2-D456 (cynomolgus monkey); assay: as above
T2 construct: Made by the same method as hMASP2-D456
Method: as §1, §2, §3

[3] = target: T3, mouse MASP-2 mMASP2-D456 (mouse, UniProt Q91WP0 287-685); assay: Octet RED96e BLI, antibody captured on AHC sensor, antigen in solution
T3 construct: Made by the same method as hMASP2-D456
Method: as §1
First, the sample was added to a 96-well plate (Greiner bio-one, 655209) with a system of 200 μL/well. Then, software parameters were set, the temperature of the plate was set to 30° C., and the frequency for collecting standard dynamic signals was 5.0 Hz. Next, an AHC sensor (Fortebio, article number: 18-0015) was pre-wet with 1×PBST for 10 minutes, and then data were acquired. […]
as §3

[4] = target: T1, recombinant human MASP-2 protein …; assay: ELISA on plate-coated hMASP2-D456, detection with HRP secondary antibody, OD450/630nm; unit taken from the axis 'Antibody pM (Ig)'
Method: (§4) The hMASP2-D456 was diluted to 1.0 μg/mL and 0.5 μg/mL with a carbonate buffer solution (CBS), each added to a high binding transparent polystyrene 96-well plate (Nunc) with 100 μL/well and wrapped overnight at 4° C. The next day, the ELISA plate was washed twice on an automatic plate washer with a washing buffer (PBS+0.05% Tween 20 (sigma)). 300 μL of blocking buffer (PBS+0.05% Tween 20 (sigma)+1% BSA) was added to each well, and the ELISA plate was sealed at room temperature for 1 hour. Then the ELISA plate was washed twice with the washing buffer on the automatic plate washer, and the monoclonal antibody was diluted with the blocking buffer to 8 gradients. The monoclonal antibody was sequentially added to each well of the ELISA plate and incubated at room temperature for 1 hour, and then the plate was washed 3 times according to the above method. 100 μL of goat anti-mouse HRP (Sigma, article number: M4280) or rabbit anti-rat Fc-HRP (Sigma, article number: A5795) diluted at 1:5000 in the blocking buffer was added to each well. Incubation was performed at room temperature for 1 hour, and then the plate was washed 3 times according to the above method. […] The plate was read at 450 nm on a Thermo Multiscan FC. Graphs were drawn with Graphpad and EC50 was calculated. […]

[5] = target: T3, mouse MASP-2 mMASP2-D456; assay: ELISA on plate-coated mMASP2-D456, OD450/630nm
Method: as §4, with “The mouse mMASP2-D456 and cynomolgus monkey cMASP2-D456 were diluted to” for “The hMASP2-D456 was diluted to”, “carbonate buffer solution, each added” for “carbonate buffer solution (CBS), each added”, “monoclonal antibody 50A6 was diluted” for “monoclonal antibody was diluted”, “buffer to 15.0 μg/mL at 11 gradients. The” for “buffer to 8 gradients. The”, “at 1:5000 with the blocking” for “at 1:5000 in the blocking”

[6] = target: T2, cynomolgus monkey MASP-2 cMASP2-D456; assay: ELISA on plate-coated cMASP2-D456, detection with HRP secondary antibody, OD450/630nm; unit taken from the axis 'Antibody pM (Ig)'
Method: as §4, with “The mouse mMASP2-D456 and cynomolgus monkey cMASP2-D456 were diluted to” for “The hMASP2-D456 was diluted to”, “carbonate buffer solution, each added” for “carbonate buffer solution (CBS), each added”, “monoclonal antibody 50A6 was diluted” for “monoclonal antibody was diluted”, “buffer to 15.0 μg/mL at 11 gradients. The” for “buffer to 8 gradients. The”, “at 1:5000 with the blocking” for “at 1:5000 in the blocking”

[7] = target: T1, recombinant human MASP-2 protein …; assay: ELISA on plate-coated hMASP2-D456, detection with HRP secondary antibody, OD450/630nm; unit taken from the axis 'Antibody nM (Ig)'
Method: as §4

[8] = target: T2, cynomolgus monkey MASP-2 cMASP2-D456; assay: ELISA on plate-coated cMASP2-D456, detection with HRP secondary antibody, OD450/630nm
Method: as §4, with “The mouse mMASP2-D456 and cynomolgus monkey cMASP2-D456 were diluted to” for “The hMASP2-D456 was diluted to”, “carbonate buffer solution, each added” for “carbonate buffer solution (CBS), each added”, “monoclonal antibody 50A6 was diluted” for “monoclonal antibody was diluted”, “buffer to 15.0 μg/mL at 11 gradients. The” for “buffer to 8 gradients. The”, “at 1:5000 with the blocking” for “at 1:5000 in the blocking”

T3 sequence (Q91WP0 other isoform, or with tags, fused parts or gaps limits assumed): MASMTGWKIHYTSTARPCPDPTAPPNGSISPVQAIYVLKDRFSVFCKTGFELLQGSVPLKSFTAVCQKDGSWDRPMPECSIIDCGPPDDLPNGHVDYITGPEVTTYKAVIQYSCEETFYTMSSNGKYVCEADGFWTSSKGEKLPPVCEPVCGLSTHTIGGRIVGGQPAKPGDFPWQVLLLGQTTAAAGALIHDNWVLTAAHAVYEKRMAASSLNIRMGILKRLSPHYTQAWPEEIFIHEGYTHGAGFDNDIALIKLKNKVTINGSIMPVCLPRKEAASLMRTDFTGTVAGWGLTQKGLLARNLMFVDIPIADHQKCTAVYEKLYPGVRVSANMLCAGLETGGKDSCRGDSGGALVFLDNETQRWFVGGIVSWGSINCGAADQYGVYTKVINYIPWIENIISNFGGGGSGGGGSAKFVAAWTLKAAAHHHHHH
T1 sequence (O00187 other isoform, or with tags, fused parts or gaps limits assumed): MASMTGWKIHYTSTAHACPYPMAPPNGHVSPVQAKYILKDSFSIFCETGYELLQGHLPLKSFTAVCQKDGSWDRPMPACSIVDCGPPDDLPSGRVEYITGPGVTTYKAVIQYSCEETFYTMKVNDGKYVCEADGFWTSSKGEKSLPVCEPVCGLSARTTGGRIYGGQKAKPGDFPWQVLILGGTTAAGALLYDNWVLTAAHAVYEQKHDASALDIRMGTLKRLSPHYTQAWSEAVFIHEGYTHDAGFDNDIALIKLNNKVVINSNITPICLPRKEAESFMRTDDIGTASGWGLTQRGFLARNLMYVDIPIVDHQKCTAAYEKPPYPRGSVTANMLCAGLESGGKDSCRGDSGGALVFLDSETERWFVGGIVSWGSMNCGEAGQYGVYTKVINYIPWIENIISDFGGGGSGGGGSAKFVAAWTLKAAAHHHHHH
T2 sequence (chain, as listed by the source limits assumed): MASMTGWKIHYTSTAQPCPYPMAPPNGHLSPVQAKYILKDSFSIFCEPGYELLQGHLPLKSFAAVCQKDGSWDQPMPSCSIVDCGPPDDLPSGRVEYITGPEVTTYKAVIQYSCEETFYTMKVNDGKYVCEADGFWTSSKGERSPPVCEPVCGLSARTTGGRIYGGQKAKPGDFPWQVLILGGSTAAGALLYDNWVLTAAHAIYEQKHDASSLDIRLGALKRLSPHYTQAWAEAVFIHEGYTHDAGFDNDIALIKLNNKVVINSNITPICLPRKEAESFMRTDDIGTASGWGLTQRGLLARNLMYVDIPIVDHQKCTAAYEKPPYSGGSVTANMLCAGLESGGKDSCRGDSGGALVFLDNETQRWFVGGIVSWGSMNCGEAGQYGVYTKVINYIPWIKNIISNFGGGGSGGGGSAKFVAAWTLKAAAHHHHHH

Binder | Kd [1] [nM] | Kd [2] [nM] | binding result [3] | other results
humanized anti-MASP-2 antibody JYB1931A63 (antibody, V domains shown, Humanized from 50A6 and expressed in ExpiCHO as a full antibody; captured on an AHC (anti-human Fc) sensor) VH: EVQLVESGGGLVQPGGSLRLSCAASGFTFNDYNMAWVRQAPGKGLEWVATILFDGSRTYYRDSVKGRFTISRDNAKNSLYLQMNSLRAEDTAVYYCSTESPYYSEGYYQGYFDYWGQGTLVTVSS VL: EIVLTQSPATLSLSPGERATLSCRASQSVSTSIHWYQQKPGQAPRLLIKYASRSISGIPARFSGSGSGTDFTLTISSLEPEDFAVYYCQQSYSSLYTFGQGTKLEIK | 0.335 | 1.31 | no binding (tested: 30 nM antigen) | –
rat anti-human MASP-2 monoclonal antibody 50A6 (antibody, V domains shown, Rat hybridoma monoclonal antibody purified from serum-free culture and detected with anti-rat Fc-HRP; the rat constant regions are not; also called 50A6 antibody) VH: EVQLVESGGGLVQPGRSLSLSCAASGFTFNDYNMAWVRQTPKKGLEWVATILFDGSRTYYRDSVKGRFTISRENAKSTLYLQMDSLRSEDTATYYCSTESPYYSEGYYQGYFDYWGQGVMVTVSS VL: NIVLTQSPATLSVTPGESVSLSCRASQSVSTSIHWYQQRSNESPRLLIKYASRSISGIPSRFSGSGSGTDFTLSINRVESEDFSIYYCQQSYSSLYTFGAGTKLELR | – | – | – | EC50 [4]: 0.0933 nM; binding result [5]: no binding; EC50 [6]: 0.067 nM
mouse anti-human MASP-2 monoclonal antibody 47A1 (antibody, V domains shown, Mouse hybridoma monoclonal antibody purified from serum-free culture and detected with anti-mouse HRP; the mouse constant regions are not; also called 47A1 antibody) VH: DVQLQESGPGLVKPSQSLSLTCTVTGYSITSDYAWNWIRQFPGNKLEWMGYISYSGRTSYNPSLKSRISITRNTSTNQFFLQLNSVTTEDTATYFCARYWGDYWGQGTTLTVSS VL: DIVMTQSQKFMSTSVGDRVSVTCKASQNVGSNVAWFQQKPGQSPKPLIYSASYRYSGVPDRFTGSGSGTDFTLTISNVQSEDLAEYFCHQYNTYPLTFGAGTKLELN | – | – | – | EC50 [7]: 0.333 nM; EC50 (read off the curve) [8]: ~0.6 nM
humanized anti-MASP-2 antibody JYB1931A13 (antibody, V domains shown, Humanized from 47A1 and expressed in ExpiCHO as a full antibody; captured on an AHC (anti-human Fc) sensor) VH: QVQLQESGPGLVKPSQTLSLTCTVSGYSITSDYAWNWIRQPPGKGLEWIGYISYSGRTSYNPSLKSRVTISRDTSKNQFSLKLSSVTAADTAVYYCARYWGDYWGQGTLVTVSS VL: DIQMTQSPSSLSASVGDRVTITCKASQNVGSNVAWFQQKPGKAPKPLIYSASYRYSGVPSRFSGSGSGTDFTLTISSLQPEDFATYFCHQYNTYPLTFGGGTKVEIK | 1.17 | 0.305 | no binding (tested: 30 nM antigen) | –
